Here are results for one molecule from publication PMC12667553 (2025).

In the assay the target is His6-tagged YAP, purified (immobilised in BLI) (UniProt P46937 1-504). In words: BLI.
His6-tagged YAP, purified (immobilised in BLI), sequence (P46937 whole entry): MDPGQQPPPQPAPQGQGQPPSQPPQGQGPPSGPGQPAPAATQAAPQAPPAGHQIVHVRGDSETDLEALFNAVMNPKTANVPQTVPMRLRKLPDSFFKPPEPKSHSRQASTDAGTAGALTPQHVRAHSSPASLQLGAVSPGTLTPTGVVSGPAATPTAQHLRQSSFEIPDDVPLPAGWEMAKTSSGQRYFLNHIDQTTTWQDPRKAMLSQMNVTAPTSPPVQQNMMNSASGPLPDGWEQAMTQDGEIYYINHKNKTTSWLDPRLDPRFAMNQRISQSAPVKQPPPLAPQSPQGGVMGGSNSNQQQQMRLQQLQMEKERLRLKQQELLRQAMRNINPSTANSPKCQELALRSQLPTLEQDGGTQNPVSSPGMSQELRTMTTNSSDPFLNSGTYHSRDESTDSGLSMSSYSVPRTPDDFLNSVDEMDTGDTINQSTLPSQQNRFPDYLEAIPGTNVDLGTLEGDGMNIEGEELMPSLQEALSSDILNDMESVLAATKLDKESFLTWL

B1: recombinant TWF2, purified (BLI analyte) (natural protein)
chain: MAHQTGIHATEELKEFFAKARAGSVRLIKVVIEDEQLVLGASQEPVGRWDQDYDRAVLPLLDAQQPCYLLYRLDSQNAQGFEWLFLAWSPDNSPVRLKMLYAATRATVKKEFGGGHIKDELFGTVKDDLSFAGYQKHLSSCAAPAPLTSAERELQQIRINEVKTEISVESKHQTLQGLAFPLQPEAQRALQQLKQKMVNYIQMKLDLERETIELVHTEPTDVAQLPSRVPRDAARYHFFLYKHTHEGDPLESVVFIYSMPGYKCSIKERMLYSSCKSRLLDSVEQDFHLEIAKKIEIGDGAELTAEFLYDEVHPKQHAFKQAFAKPKGPGGKRGHKRLIRGPGENGDDS
Broadly, the Kd is the concentration at which binding is half-saturated. In turn, B1 gave an equilibrium dissociation constant (Kd) of 7.9 µM.
